In PMC9359980:

Columns and labels:
[1] = molecular target: Photozipper (PZ), wild-type (Vaucheria frigida); test: high-speed atomic force microscopy (HS-AFM); molecules on mica in Buffer-B (1 mM NaCl, 20 mM Tris-HCl pH 7, 1 mM DTT, 0.2 mM PMSF), room temperature, dark conditions (prepared under dim red light); 13-38 nM protein; dimer to monomers
[2] = molecular target: Photozipper (PZ), wild-type (Vaucheria frigida); test: high-speed atomic force microscopy (HS-AFM); molecules on mica in Buffer-B (1 mM NaCl, 20 mM Tris-HCl pH 7, 1 mM DTT, 0.2 mM PMSF), room temperature, blue light illumination (450 nm, about 4.3 mW/mm^2); 13-50 nM protein; dimer to monomers

“Photozipper (PZ), wild-type (domain or fragment)” was tested. Which average dimer lifetime [1] did it give?
The average dimer lifetime was 8.1 s.

What about the stoichiometry N [1] of the same substance?
Its stoichiometry N is 2.

What about the average dimer lifetime [2] of the same substance?
Its average dimer lifetime is 86 s.

And the stoichiometry N [2]?
The stoichiometry N was 2.

And the time constant of the dimerization rate (38 nM PZ, after the start of blue light) [2]?
The time constant of the dimerization rate (38 nM PZ, after the start of blue light) was 255 s.
